Laboratory results reported in PMC6152618, “Antimicrobial Activity of Truncated and Polyvalent Peptides Derived from the FKCRRWQWRMKKGLA Sequence against Escherichia coli ATCC 25922 and Staphylococcus aureus ATCC 25923” (Molecules : A Journal of Synthetic Chemistry and Natural …, 2017).

Columns and labels:
[1] = test system: Escherichia coli ATCC 25922; format: cell-based; settings: n = 2
Procedure: (§1) The MIC was determined using a microdilution assay. In brief, bacterial strains were incubated for 18 to 24 h at 37 °C in an Müller-Hinton (MH) broth until an optical density of 0.15 to 0.30 (620 nm) was obtained. Next, 90 μL of Mueller-Hinton broth (MHB) was mixed with […], and serial dilutions (200, 100, 50, 25, 12.5 and 6.2) were prepared in 96-well microplates (final volume 100 μL/well). Then, 10 μL of inoculum (2 × 10^6 CFU/mL) was added to each well. The final volume in each well was 100 μL. Then they were incubated for 24 h at 37 °C; the absorbance at 620 nm was measured using an Asys Expert Plus ELISA reader. For determining the MBC, a small sample was taken from each well using an inoculation loop, and then was spread on MH agar plates and incubated overnight at 37 °C. MBC was considered on the plate which presented no bacterial growth. Each of these tests was performed twice (n = 2).

[2] = test system: Staphylococcus aureus ATCC 25923; format: cell-based; settings: n = 2
Procedure: as §1

[3] = microdilution, Mueller-Hinton broth, 24 h at 37 °C, absorbance 620 nm
[4] = sample of each well spread on MH agar, overnight 37 °C, no bacterial growth

B1: BLF: bovine lactoferrin protein, control (protein, UniProt P24627 20-708, looked up)
Lactotransferrin: APRKNVRWCTISQPEWFKCRRWQWRMKKLGAPSITCVRRAFALECIRAIAEKKADAVTLDGGMVFEAGRDPYKLRPVAAEIYGTKESPQTHYYAVAVVKKGSNFQLDQLQGRKSCHTGLGRSAGWIIPMGILRPYLSWTESLEPLQGAVAKFFSASCVPCIDRQAYPNLCQLCKGEGENQCACSSREPYFGYSGAFKCLQDGAGDVAFVKETTVFENLPEKADRDQYELLCLNNSRAPVDAFKECHLAQVPSHAVVARSVDGKEDLIWKLLSKAQEKFGKNKSRSFQLFGSPPGQRDLLFKDSALGFLRIPSKVDSALYLGSRYLTTLKNLRETAEEVKARYTRVVWCAVGPEEQKKCQQWSQQSGQNVTCATASTTDDCIVLVLKGEADALNLDGGYIYTAGKCGLVPVLAENRKSSKHSSLDCVLRPTEGYLAVAVVKKANEGLTWNSLKDKKSCHTAVDRTAGWNIPMGLIVNQTGSCAFDEFFSQSCAPGADPKSRLCALCAGDDQGLDKCVPNSKEKYYGYTGAFRCLAEDVGDVAFVKNDTVWENTNGESTADWAKNLNREDFRLLCLDGTRKPVTEAQSCHLAVAPNHAVVSRSDRAAHVKQVLLHQQALFGKNGKNCPDKFCLFKSETKNLLFNDNTECLAKLGGRPTYEEYLGTEYVTAIANLKKCSTSPLLEACAFLTR
>50 µM: MIC E. coli ATCC 25922 [1, 3] | MBC E. coli ATCC 25922 [1, 4] | MIC S. aureus ATCC 25923 [2, 3] | MBC S. aureus ATCC 25923 [2, 4]
